Laboratory results published in patent US20230365705A1 (DYNAMICURE BIOTECHNOLOGY, published 2023).
Values belong to the binder of their own block, whether it stands above or below them.

Key:
[1] = target: T1, Human CD93 on cells (human CD93 expressing CHO cells; HUVEC, U937 and KG1a cells) (human, UniProt Q9NPY3 22-652); experiment: flow cytometry titration, HUVEC cells
T1 construct: whole, on cells; also called hCD93 expressing CHO cells; hCD93 CHO cells
T1 sequence (looked up): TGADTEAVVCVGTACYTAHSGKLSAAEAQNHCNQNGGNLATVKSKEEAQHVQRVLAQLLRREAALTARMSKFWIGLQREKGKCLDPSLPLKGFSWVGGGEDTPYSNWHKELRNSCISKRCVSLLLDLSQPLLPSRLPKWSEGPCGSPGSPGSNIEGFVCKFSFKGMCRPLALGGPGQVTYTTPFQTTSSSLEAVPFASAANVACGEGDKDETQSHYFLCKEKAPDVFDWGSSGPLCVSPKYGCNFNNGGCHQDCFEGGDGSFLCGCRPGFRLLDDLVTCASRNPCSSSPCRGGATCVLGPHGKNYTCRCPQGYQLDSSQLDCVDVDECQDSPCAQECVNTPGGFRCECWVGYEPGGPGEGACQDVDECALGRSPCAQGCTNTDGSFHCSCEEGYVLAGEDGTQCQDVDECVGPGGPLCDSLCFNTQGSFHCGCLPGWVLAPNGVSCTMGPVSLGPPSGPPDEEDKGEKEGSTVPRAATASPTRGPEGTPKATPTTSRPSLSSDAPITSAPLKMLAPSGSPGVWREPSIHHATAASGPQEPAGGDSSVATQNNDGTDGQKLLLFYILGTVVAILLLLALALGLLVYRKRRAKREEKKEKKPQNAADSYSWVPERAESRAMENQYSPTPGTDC
Experimental: (§1) HUVEC cells were detached by incubation with TrypLE reagents (Thermo Fisher), which preserves the integrity of CD93 on the cell surface. Then the cells were incubated with serial diluted anti-CD93 antibodies for 30 minutes at 4° C. After washing by FACS buffer, the cells were incubated with Alexa Fluor 647 conjugated anti-human IgG (Jackson ImmunoResearch) for 30 minutes in 4° C. After washing by FACS buffer twice, the samples were acquired in NovoCyte Flow Cytometer and analyzed by NovoExpress software.

[2] = target: T1, Human CD93 on cells (human CD93 …); experiment: flow cytometry blocking assay, HUVEC cells; blocked ligand hIGFBP7-His 0.1 ug/ml; blocking activity runs from about 46 to about 72 % of control
Experimental: After washing with FACS buffer twice, the samples were analyzed and data acquired in NovoCyte Flow.

[3] = target: T1, Human CD93 on cells (human CD93 …); experiment: flow cytometry titration, CHO-hCD93 cells; antibody stored 2 weeks at 40 C
Experimental: as §1, with “Human CD93 expressing CHO cells” for “HUVEC cells”, “minutes in” for “minutes at”, “minutes at” for “minutes in”

[4] = target: T2, Human CD93 recombinant protein (Sino Biological Inc, Catalog #12589-H08H) (human, UniProt Q9NPY3 22-580); experiment: ELISA, hCD93-His coated, OD450; unit printed as pmM
T2 construct: Biotinylated (EZ-LINK NHS-PEG4 biotin) in the BLI assays; also called hCD93; His-tagged human CD93
T2 sequence (looked up): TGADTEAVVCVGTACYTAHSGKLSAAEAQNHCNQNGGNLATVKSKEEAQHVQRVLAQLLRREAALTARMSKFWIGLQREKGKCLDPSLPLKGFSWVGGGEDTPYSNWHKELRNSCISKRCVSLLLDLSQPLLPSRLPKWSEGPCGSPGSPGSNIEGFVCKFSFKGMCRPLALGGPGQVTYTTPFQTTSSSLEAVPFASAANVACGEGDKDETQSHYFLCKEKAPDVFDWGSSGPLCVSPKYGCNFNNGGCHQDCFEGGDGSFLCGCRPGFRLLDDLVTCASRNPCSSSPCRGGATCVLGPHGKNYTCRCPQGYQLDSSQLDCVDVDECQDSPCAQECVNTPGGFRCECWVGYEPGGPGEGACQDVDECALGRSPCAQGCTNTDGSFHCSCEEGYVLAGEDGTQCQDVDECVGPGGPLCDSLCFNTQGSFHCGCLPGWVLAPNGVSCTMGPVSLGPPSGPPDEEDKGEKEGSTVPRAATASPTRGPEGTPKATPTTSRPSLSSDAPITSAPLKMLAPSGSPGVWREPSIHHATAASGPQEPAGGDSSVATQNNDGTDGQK
Experimental: His-tagged human CD93 was coated onto a 96 well plate at 1 μg/mL in 1×PBS overnight at 4° C. The plate was washed with ELISA wash buffer (Boston BioProduct, Inc.) and the wells were blocked with ELISA blocking buffer for 1 hour at 37° C. Purified antibodies were serially diluted in ELISA blocking buffer (Boston BioProduct, Inc.) and incubated on the receptor for 1 hour at 37° C. The plate was washed with ELISA wash Buffer. […] The plate was washed with ELISA wash buffer. HRP substrate was added for indirect detection of the antibodies binding to CD93.

[5] = target: T1, Human CD93 on cells (human CD93 …); experiment: flow cytometry blocking assay, CHO-hCD93 cells, antibody 50 ug/ml then MMRN2 0.1 ug/ml, APC-A
Experimental: After incubation, the cells were washed with FACS buffer and incubated with anti-His conjugated APC or streptavidin conjugated APC at a ratio of 1:500 for 30 minutes at 4° C. After washing with FACS buffer twice, the samples were analyzed and data acquired in NovoCyte Flow.

[6] = target: T1, Human CD93 on cells (human CD93 …); experiment: flow cytometry titration, CHO-hCD93 cells
Experimental: as §1, with “Human CD93 expressing CHO” for “HUVEC”

EC50 [1]: 1.34 nM
IC50 [2]: 1 nM
EC50 [3]: 0.194 nM
B1: h7F3 (humanized 7F3, VH3+VL3) (antibody, human IgG1, V domains shown)
VH: QVQLVQSGAEVKKPGASVKVSCKASGYTFTDYEMHWVRQAPGQGLEWMGGIDPETGDTAYNQNFKGRVTMTTDTSTSTAYMELRSLTSDDTAVYYCTNYGNLYYYAMDYWGQGTSVTVSS
VL: EIVLTQSPSSLSASVGDRVTITCRASSSVSSSYLHWYQQKPGKAPKLLIYSTSNLAFGVPSRFSGSGSGTSYTFTISSLQPEDIATYYCQQYSGYPLTFGSGTKLEIK
notes: also called humanized 7F3-hIgG1

EC50 [4]: 0.112 nM
M3 gate, % of cells positive for MMRN2 after the antibody [5]: 37.7%
B2: 16E4 (hybridoma) (antibody, IgG2a, V domains shown)
VH: QVQLQQPGAELVKPGASVKLSCKASGYTFTSYWMHWVKQRPGQGLEWIGEIDPSASYTYYNQKFKGKATLTVDKSSSTAYMQLSSLTSEDSAVYYCARSVYYGNKYFDVWGAGTTVTVSS
VL: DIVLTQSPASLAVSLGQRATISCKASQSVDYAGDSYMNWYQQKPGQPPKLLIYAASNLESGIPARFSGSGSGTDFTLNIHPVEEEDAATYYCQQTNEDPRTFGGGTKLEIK
notes: also called 16E4 mAb; 16E4 mIgG2a

EC50 [6]: 0.388 nM
B3: h16E4 (humanized 16E4, VH4+VL6) (antibody, V domains shown)
VH: QVQLVQSGAEVKKPGASVKVSCKASGYTFTSYWMHWVRQAPGQGLEWMGEIDPSASYTYYNQKFKGRVTMTRDKSSSTVYMELSSLTSEDSAVYYCARSVYYGNKYFDVWGAGTTVTVSS
VL: DIQMTQSPSTLSASVGDRVTITCKASQSVDYAGDSYMNWYQQKPGKAPKLLIYAASNLESGVPSRFSGSGSGTEFTLTISSLQPDDFATYYCQQTNEDPRTFGGGTKLEIK
notes: Detected with anti-human IgG, so a human Fc
